Results reported in doi:10.1101/2022.04.04.486996 (bioRxiv, 2022).

How the values were obtained:
[1] = target: T1, E. coli ketosynthase FabF (E. coli, UniProt P0AAI5 1-413); assay: cross-linking
T1 sequence: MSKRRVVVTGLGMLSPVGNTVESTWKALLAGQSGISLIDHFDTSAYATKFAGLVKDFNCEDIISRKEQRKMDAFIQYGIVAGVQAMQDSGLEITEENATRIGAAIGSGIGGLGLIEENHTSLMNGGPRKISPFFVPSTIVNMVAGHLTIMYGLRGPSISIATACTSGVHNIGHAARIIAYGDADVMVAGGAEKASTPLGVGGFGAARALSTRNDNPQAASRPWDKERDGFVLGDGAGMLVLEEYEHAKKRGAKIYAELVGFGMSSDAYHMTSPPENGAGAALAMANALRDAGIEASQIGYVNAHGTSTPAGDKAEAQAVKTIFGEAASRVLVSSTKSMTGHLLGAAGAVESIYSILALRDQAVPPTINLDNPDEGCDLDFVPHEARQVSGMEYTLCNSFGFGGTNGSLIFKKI

[2] = target: the molecule itself; assay: crystal structure

B1: ACP loaded with the (Z)-C14Cl chloroacrylate crosslinking probe (crypto-ACP) (natural protein, E. coli)
chain: STIEERVKKIIGEQLGVKQEEVTNNASFVEDLGADSLDTVELVMALEEEFDTEIPDEEAEKITTVQAAIDYINGHQA
modifications: S36 carries the 4'-phosphopantetheine analogue with the (Z)-C14Cl (C14-chloroacrylate) crosslinking probe
binding result [1]: binds

B2: E. coli ketosynthase FabB (enzyme)
chain: MKRAVITGLGIVSSIGNNQQEVLASLREGRSGITFSQELKDSGMRSHVWGNVKLDTTGLIDRKVVRFMSDASIYAFLSMEQAIADAGLSPEAYQNNPRVGLIAGSGGGSPRFQVFGADAMRGPRGLKAVGPYVVTKAMASGVSACLATPFKIHGVNYSISSACATSAHCIGNAVEQIQLGKQDIVFAGGGEELCWEMACEFDAMGALSTKYNDTPEKASRTYDAHRDGFVIAGGGGMVVVEELEHALARGAHIYAEIVGYGATSDGADMVAPSGEGAVRCMKMAMHGVDTPIDYLNSHGTSTPVGDVKELAAIREVFGDKSPAISATKAMTGHSLGAAGVQEAIYSLLMLEHGFIAPSINIEELDEQAAGLNIVTETTDRELTTVMSNSFGFGGTNATLVMRKLKD
stoichiometry N [2]: 2
